Measurements taken from patent US20230365705A1 (DYNAMICURE BIOTECHNOLOGY, published 2023).

T1: Human CD93 on cells (human CD93 expressing CHO cells; HUVEC, U937 and KG1a cells) (human, UniProt Q9NPY3 22-652)
T1 construct: whole, on cells; also called hCD93 expressing CHO cells; hCD93 CHO cells
T1 sequence (looked up): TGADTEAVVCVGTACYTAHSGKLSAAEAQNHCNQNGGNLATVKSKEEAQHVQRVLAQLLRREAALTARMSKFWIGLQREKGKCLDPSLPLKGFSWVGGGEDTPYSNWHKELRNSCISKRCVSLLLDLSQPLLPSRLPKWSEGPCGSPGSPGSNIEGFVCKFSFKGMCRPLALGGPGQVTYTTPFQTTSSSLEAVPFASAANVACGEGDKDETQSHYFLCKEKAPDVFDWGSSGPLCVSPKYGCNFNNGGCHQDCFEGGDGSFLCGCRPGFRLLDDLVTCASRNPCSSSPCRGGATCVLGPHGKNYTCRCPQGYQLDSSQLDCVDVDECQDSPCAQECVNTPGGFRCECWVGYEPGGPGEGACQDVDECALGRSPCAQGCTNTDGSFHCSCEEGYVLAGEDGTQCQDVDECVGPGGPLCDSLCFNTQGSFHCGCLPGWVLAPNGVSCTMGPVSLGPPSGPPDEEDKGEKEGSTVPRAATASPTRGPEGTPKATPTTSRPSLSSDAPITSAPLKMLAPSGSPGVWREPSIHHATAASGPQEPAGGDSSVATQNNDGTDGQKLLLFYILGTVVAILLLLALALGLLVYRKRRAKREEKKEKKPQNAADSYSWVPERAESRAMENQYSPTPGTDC

B1: h7F3 (humanized 7F3, VH3+VL3) (antibody, human IgG1, V domains shown)
VH: QVQLVQSGAEVKKPGASVKVSCKASGYTFTDYEMHWVRQAPGQGLEWMGGIDPETGDTAYNQNFKGRVTMTTDTSTSTAYMELRSLTSDDTAVYYCTNYGNLYYYAMDYWGQGTSVTVSS
VL: EIVLTQSPSSLSASVGDRVTITCRASSSVSSSYLHWYQQKPGKAPKLLIYSTSNLAFGVPSRFSGSGSGTSYTFTISSLQPEDIATYYCQQYSGYPLTFGSGTKLEIK
notes: also called humanized 7F3-hIgG1
B2: h16E4 (humanized 16E4, VH4+VL6) (antibody, V domains shown)
VH: QVQLVQSGAEVKKPGASVKVSCKASGYTFTSYWMHWVRQAPGQGLEWMGEIDPSASYTYYNQKFKGRVTMTRDKSSSTVYMELSSLTSEDSAVYYCARSVYYGNKYFDVWGAGTTVTVSS
VL: DIQMTQSPSTLSASVGDRVTITCKASQSVDYAGDSYMNWYQQKPGKAPKLLIYAASNLESGVPSRFSGSGSGTEFTLTISSLQPDDFATYYCQQTNEDPRTFGGGTKLEIK
notes: Detected with anti-human IgG, so a human Fc

Columns and labels:
[1] = molecular target: T1, Human CD93 on cells (human CD93 …); assay: flow cytometry titration, CHO-hCD93 cells; antibody stored 4 weeks at 40 C
Procedure: (§1) Human CD93 expressing CHO cells were detached by incubation with TrypLE reagents (Thermo Fisher), which preserves the integrity of CD93 on the cell surface. Then the cells were incubated with serial diluted anti-CD93 antibodies for 30 minutes in 4° C. After washing by FACS buffer, the cells were incubated with Alexa Fluor 647 conjugated anti-human IgG (Jackson ImmunoResearch) for 30 minutes at 4° C. After washing by FACS buffer twice, the samples were acquired in NovoCyte Flow Cytometer and analyzed by NovoExpress software.

[2] = molecular target: T1, Human CD93 on cells (human CD93 …); assay: flow cytometry titration, HUVEC cells; antibody stored 2 weeks at 40 C
Procedure: as §1, with “HUVEC cells” for “Human CD93 expressing CHO cells”, “minutes at” for “minutes in”, “minutes in” for “minutes at”

[3] = molecular target: T1, Human CD93 on cells (human CD93 …); assay: flow cytometry titration, CHO-hCD93 cells; antibody stored 2 weeks at 40 C
Procedure: as §1

[4] = molecular target: T1, Human CD93 on cells (human CD93 …); assay: flow cytometry blocking assay, CHO-hCD93 cells; blocked ligand hMMRN2 495-674 at 0.1 ug/ml
Procedure: (§2) Then the cells were incubated with hMMRN2₄₉₅₋₆₇₄ at 0.1 μg/ml. […] Then the cells were washed with FACS buffer and incubated with APC-conjugated anti-His tag antibody at 1 μg/ml for 30 minutes at 4° C. After washing with FACS buffer twice, the samples were analyzed and data acquired in NovoCyte Flow. Recombinant his tagged […] was produced internally in Expi_HEK following routine procedure.

[5] = molecular target: T1, Human CD93 on cells (human CD93 …); assay: flow cytometry blocking assay, CHO-hCD93 cells; blocked ligand hMMRN2 495-674 at 0.1 ug/ml; blocking activity is 0 up to about 10 ug/ml and appears only at the two highest points
Procedure: as §2

[6] = molecular target: T1, Human CD93 on cells (human CD93 …); assay: flow cytometry titration, CHO-hCD93 cells; antibody stored 2 weeks at 40 C; remark: listed apart in the source
Procedure: as §1, with “minutes at” for “minutes in”, “minutes in” for “minutes at”

[7] = molecular target: T1, Human CD93 on cells (human CD93 …); assay: flow cytometry titration, CHO-hCD93 cells; antibody stored 4 weeks at 40 C; remark: listed apart in the source
Procedure: as §1, with “minutes at” for “minutes in”, “minutes in” for “minutes at”

| Binder | EC50 [1] [nM] | EC50 [2] [nM] | EC50 [3] [nM] | IC50 [4] [nM] | IC50 [5] [nM] | EC50 [6] [nM] | EC50 [7] [nM] |
| --- | --- | --- | --- | --- | --- | --- | --- |
| B1 | 0.195 | 1.17 | 0.194 | 0.133 | – | – | – |
| B2 | – | – | – | – | 225 | 0.274 | 0.312 |
